Results from PMC10011822 (The Journal of Biological Chemistry, 2023).
Blank lines part the entries; values can stand above or below the molecule they belong to.

B2: N99A SufS (enzyme, E. coli)
chain: MIFSVDKVRADFPVLSREVNGLPLAYLDSAASAQKPSQVIDAEAEFYRHGYAAVHRGIHTLSAQATEKMENVRKRASLFINARSAEELVFVRGTTEGIALVANSWGNSNVRAGDNIIISQMEHHANIVPWQMLCARVGAELRVIPLNPDGTLQLETLPTLFDEKTRLLAITHVSNVLGTENPLAEMITLAHQHGAKVLVDGAQAVMHHPVDVQALDCDFYVFSGHKLYGPTGIGILYVKEALLQEMPPWEGGGSMIATVSLSEGTTWTKAPWRFEAGTPNTGGIIGLGAALEYVSALGLNNIAEYEQNLMHYALSQLESVPDLTLYGPQNRLGVIAFNLGKHHAYDVGSFLDNYGIAVRTGHHCAMPLMAYYNVPAMCRASLAMYNTHEEVDRLVTGLQRIHRLLG
notes: SufS cysteine desulfurase, E. coli, UniProt P77444, with N99A; gene in pET-21(a); Carries the PLP cofactor; No tag named; Dimer in the crystal structure; also called SufS N99A; source: E. coli BL21(DE3)Δsuf, pET21, purified (Q-XL, Phenyl HP, Superdex 200)
B3: N99D SufS (enzyme, E. coli)
chain: MIFSVDKVRADFPVLSREVNGLPLAYLDSAASAQKPSQVIDAEAEFYRHGYAAVHRGIHTLSAQATEKMENVRKRASLFINARSAEELVFVRGTTEGIDLVANSWGNSNVRAGDNIIISQMEHHANIVPWQMLCARVGAELRVIPLNPDGTLQLETLPTLFDEKTRLLAITHVSNVLGTENPLAEMITLAHQHGAKVLVDGAQAVMHHPVDVQALDCDFYVFSGHKLYGPTGIGILYVKEALLQEMPPWEGGGSMIATVSLSEGTTWTKAPWRFEAGTPNTGGIIGLGAALEYVSALGLNNIAEYEQNLMHYALSQLESVPDLTLYGPQNRLGVIAFNLGKHHAYDVGSFLDNYGIAVRTGHHCAMPLMAYYNVPAMCRASLAMYNTHEEVDRLVTGLQRIHRLLG
notes: SufS cysteine desulfurase, E. coli, UniProt P77444, with N99D; gene in pET-21(a); Carries the PLP cofactor; No tag named; Dimer in the crystal structure; residues 248 to 268 have no electron density; also called SufS N99D; source: E. coli BL21(DE3)Δsuf, pET21, purified (Q-XL, Phenyl HP, Superdex 200)

How the values were obtained:
[1] = target: SufE (Escherichia coli) (UniProt P76194); details: cited from earlier work
[2] = target: SufS (Escherichia coli, UniProt P77444); details: no SufE, 500 μM cysteine, with and without 2 mM TCEP, pH 8.0, 25 °C
[3] = target: T1, SufS cysteine desulfurase, wild type (E. coli, UniProt P77444 1-406); assay: fluorescence polarisation; as without cysteine, but in the presence of 500 μM cysteine: SufS titrated against 100 nM BODIPY-labelled C51A/E107C SufE; 50 mM MOPS pH 8, 150 mM NaCl, 0.1 mg/ml BSA; room temperature; details: both partners purified
T1 construct: SufS cysteine desulfurase, E. coli, UniProt P77444; gene in pET-21(a); PLP-dependent enzyme; as purified it carries the pyridoxal-5'-phosphate cofactor (internal aldimine); also called WT SufS; wt SufS; source: E. coli BL21(DE3)Δsuf, pET21, purified (Q-XL, Phenyl HP, Superdex 200)
T1 sequence: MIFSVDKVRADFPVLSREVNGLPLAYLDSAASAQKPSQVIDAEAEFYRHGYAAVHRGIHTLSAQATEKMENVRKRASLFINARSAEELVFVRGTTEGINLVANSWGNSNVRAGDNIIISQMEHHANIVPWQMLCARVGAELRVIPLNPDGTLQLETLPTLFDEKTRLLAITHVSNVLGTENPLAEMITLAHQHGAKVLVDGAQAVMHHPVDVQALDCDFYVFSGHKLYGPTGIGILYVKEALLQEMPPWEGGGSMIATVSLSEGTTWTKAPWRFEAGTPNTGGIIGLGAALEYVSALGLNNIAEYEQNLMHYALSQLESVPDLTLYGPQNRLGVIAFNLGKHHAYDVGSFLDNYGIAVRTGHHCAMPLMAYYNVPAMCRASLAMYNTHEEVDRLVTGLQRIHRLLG

[4] = target: B2; assay: as above; details: both partners purified
[5] = target: B3; assay: as above; details: both partners purified
[6] = target: T2, D346R SufS (E. coli, UniProt P77444 1-406, D346R); assay: fluorescence polarisation; SufS (0.2-40 μM) titrated against 100 nM BODIPY-labelled C51A/E107C SufE; no cysteine; 50 mM MOPS pH 8, 150 mM NaCl, 0.1 mg/ml BSA; 30 min at room temperature; black 96-well plates; fit to a single-affinity site (Equation 3); details: both partners purified
T2 construct: SufS cysteine desulfurase, E. coli, UniProt P77444, with D346R; gene in pET-21(a); No tag named; nothing is said of the oligomeric state of this variant; source: E. coli BL21(DE3)Δsuf, pET21, purified (Q-XL, Phenyl HP, Superdex 200)
T2 sequence: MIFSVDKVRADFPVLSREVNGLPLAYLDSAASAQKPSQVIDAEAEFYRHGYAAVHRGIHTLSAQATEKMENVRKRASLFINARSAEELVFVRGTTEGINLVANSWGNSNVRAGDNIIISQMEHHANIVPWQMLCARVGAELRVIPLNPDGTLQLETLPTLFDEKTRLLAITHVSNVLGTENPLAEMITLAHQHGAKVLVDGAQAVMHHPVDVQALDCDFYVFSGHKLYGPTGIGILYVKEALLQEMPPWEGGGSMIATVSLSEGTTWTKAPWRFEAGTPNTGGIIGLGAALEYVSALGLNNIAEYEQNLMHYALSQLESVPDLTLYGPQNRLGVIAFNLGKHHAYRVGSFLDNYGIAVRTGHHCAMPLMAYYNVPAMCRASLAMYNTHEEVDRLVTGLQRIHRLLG

[7] = target: T1, SufS cysteine desulfurase, wild type; assay: as above; details: both partners purified
[8] = target: B2; assay: as above; details: both partners purified
[9] = target: B3; assay: as above; details: both partners purified
[10] = target: the molecule itself; assay: crystal structure; sitting drop vapor diffusion at 20 °C, 4 to 4.5 M NaCl, 100 mM MES pH 6.5; SufS variant alone, dimer

Molecule: SufS (from UniProt P77444)
Kd [1]: 0.5 µM

Molecule: N[C@@H](CS)C(=O)O [cysteine]
alanine production plate-reader assay; UV-visible cysteine-PLP intermediates [2]: WT SufS is also capable of producing alanine

Kd [3]: 0.6 ± 0.2 µM
Kd [4]: 3.1 ± 0.6 µM
Kd [5]: 3.3 ± 0.7 µM
Kd [6]: > 40 µM
Kd [7]: 5.2 µM
Kd [8]: 6.2 ± 1.8 µM
Kd [9]: 9.9 ± 3 µM
B1: BODIPY-labelled C51A/E107C SufE (natural protein, E. coli)
chain: MALLPDKEKLLRNFLRCANWEEKYLYIIELGQRLPELRDEDRSPQNSIQGAQSQVWIVMRQNAQGIIELQGDSDAAIVKGLIAVVFILYDQMTPQDIVNFDVRPWFCKMALTQHLTPSRSQGLEAMIRAIRAKAAALS
modifications: BODIPY FL maleimide on the cysteine at 107 (E107C); labelling efficiency between 60 and 80%
notes: SufE transpersulfurase, E. coli, UniProt P76194, with C51A and E107C; gene in pET-21(a); No tag named; also called labeled C51A/E107C SufE; BODPIY-C51A/E107C SufE; source: E. coli BL21(DE3), pET21, purified (Q-XL, Superdex 200), labelled with BODIPY FL maleimide

Molecule: B2
binding result [10]: binds

Molecule: B3
binding result [10]: binds
